According to patent US20210253725A1 (BIONTECH, published 2021):

T1: CD134 expressed on the cell surface of HT1080_OX40 cells (human, UniProt P43489 29-277)
T1 sequence (looked up): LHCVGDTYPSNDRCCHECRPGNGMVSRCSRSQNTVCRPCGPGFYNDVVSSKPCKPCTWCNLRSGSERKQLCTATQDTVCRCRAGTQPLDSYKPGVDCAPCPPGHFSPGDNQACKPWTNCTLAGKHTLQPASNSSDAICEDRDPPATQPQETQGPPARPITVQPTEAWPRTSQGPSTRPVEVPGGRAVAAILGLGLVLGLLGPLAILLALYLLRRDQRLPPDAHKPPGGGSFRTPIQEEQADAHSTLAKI

T2: CD134 protein (His-tagged, Sino Biological Inc. 10481-H08H) (human, UniProt P43489 29-216)
T2 construct: bought protein coated on ELISA plates; also called OX40; TNFRSF4; not shown: His tag
T2 sequence (looked up): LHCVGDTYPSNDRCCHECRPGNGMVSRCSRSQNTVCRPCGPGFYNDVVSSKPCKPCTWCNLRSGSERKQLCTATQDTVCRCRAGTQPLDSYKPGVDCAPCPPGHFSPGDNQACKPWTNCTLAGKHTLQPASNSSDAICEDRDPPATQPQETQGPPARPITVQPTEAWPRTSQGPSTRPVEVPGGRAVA


Experiments:
[1] = molecular target: T1, CD134 expressed on the cell surface of …; experiment: cell-based or functional assay
[2] = molecular target: T1, CD134 expressed on the cell surface of …; experiment: HT1080_OX40 cells, imaging
[3] = molecular target: T2, CD134 protein (His-tagged, Sino …); experiment: ELISA, coated His-tagged CD134
Note: test concentration or dose not given here.

Binder	Functional assay Cross-linked by F(ab′)2 fragment IL-8 [1] [abs. corr.]	Functional assay IL-8 [1] [abs. corr.]	Cellular binding assay [RFU] [2] [RFU]	ELISA [abs. corr.] [3] [abs. corr.]
P018.S.02.A.F03 (antibody, V domains shown, V regions on human Ig constant parts; also called AB134_2) VH: QSVEESGGRLVTPGTPLTLTCTASGFSLSRYYMSWVRQAPGKGLEWIGFINTAGSAYYASWAKGRFTISRTSTTVDLKMTSLTTEDTATYFCARDLSRFSLWGRGTLVIVSS VL: AAVLTQTPSPVSAAVGGTVTINCQASPSVYSDYLSWFQKKPGQPPKLLIYWASTLASGVPSRFSGSGSGTQFTLTISDLESDDVATYYCAGGYSGNSDNWAFGGGTDVVVK	1.73	0.09	140	2.85
P018.S.11.A.E04 (antibody, V domains shown, V regions on human Ig constant parts; also called AB134_35) VH: QSVEESGGRLVTPGTPLTLTCTVSGFSLNDYAMSWVRQAPGKGLEWIGSIYTSGTPYYATWAKGRFTISKTSTTVDLKITSPTTEDTATYFCARQSGIDNYWLFTLWGQGTLVCVSS VL: AYDMTQTPASVEVGVGGTVTIKCQASESIASGLAWYQQKPGQRPKLLIYSASSLASGVSSRFKGSGSGTQFTLTISDLESADAANYYCQQGYTSTNLHNVFGGGTEVVVK	1.83	-0.194	416	1.31
P018.S.12.A.C04 (antibody, V domains shown, V regions on human Ig constant parts; also called AB134_64) VH: QSLEESGGRLVTPGGSLTLTCTVSGIDLSRWTMSWVRQAPGKGLEWIGLIYASDDTVYASWAKGRFTISKTSTTVDLKITSPTTEDTATYFCVRVYGSTSGYYDLWGQGTLVTVSS VL: DVVMTQTPASVSEPVGGTVTIKCQASQSISNWLAWYQQKPGQPPKLLIYYASTLASGVPSRFKGSGSGTQFTLTISDLESADAATYYCQNFGDGNSIGHAFGGGTEVVVK	1.83	0.215	509	2.04
P018.S.12.A.G01 (antibody, V domains shown, V regions on human Ig constant parts; also called AB134_83) VH: QSVEESGGRLVTPGTPLTLTCTVSGFSLSSSTMGWFRQAPGKGLEWIGVIYTDGDTYYARWAKGRFTISKTSTTINLSITSPTSEDTATYFCARRANGYDDFDPWGPGTLVTVSS VL: AYDMTQTPASVEVAVGGTVTIKCQASESISSYLNWYQQKPGQPPKLLIYYESYLASGVPSRFKGSGSGTEYTLTISGVESADAATYYCQQGFSYINVDNTFGGGTEVVVK	1.86	1.33	526	1.56
P018.S.11.A.E03 (antibody, V domains shown, V regions on human Ig constant parts; also called AB134_34) VH: QSVEESGGRLVTPGTPLTLTCTVSGFSLSSYAVSWVRQAPWKGLEWIGIISSGGNTYYASWATGRFTISKTSTTVDLKITSPTTEDTATYFCARGIHSYDDYLGYKLWGPGTLVTVSS VL: AIEMTQSPPSLSASVGETVRIRCLASEFLFNAVSWYQQKPEKPPTLLISGASNLESGVPPRFSGSGSGTDYTLTIGGVQAEDVAAYYCLGGYKRADLTFGPGTKVEIK	1.79	0.481	318	0.276
P018.S.12.A.D04 (antibody, V domains shown, V regions on human Ig constant parts; also called AB134_69) VH: QSVEESGGRLVTPGTPLTLTCTVSGIDLSSYAMGWVRQAPGKGLEYIGIISYDGSTYYASWAKGRFTISKTSTTVDLKITSPTTEDTATYFCARVDYGDYNFALWGQGTLVTVSS VL: DVVMTQTPASVSEVVGGTVTIKCQASESISNYLAWYQQKPGQPPKLLIYAASNLASGVPSRFSGSGSGTQFTLTISDLESADAATYYCQCTYYVSSYFAFSGGTEVVVK	1.86	0.139	488	2.23
P018.S.12.A.H01 (antibody, V domains shown, V regions on human Ig constant parts; also called AB134_88) VH: QSVEESGGRLVTPGTPLTLTCTVSGFSLSSYAMSWVRQAPGKGLEWIGDINSYATTYYASWAKGRFTISKTSTTVDLKLTSPTTEDTATYFCAREAGYADLWGQGTLVTVSS VL: AYDMTQTPASVEVAVGGTVTIKCQASQSISRYLSWYQQEPGQRPKLLIYEASTLASGVSSRFKGSGSGTQFTLTISGVESADAATYYCQQDYDSTDVGNTFGGGTEVVVK	1.83	0.43	523	1.89
P018.S.11.A.G04 (antibody, V domains shown, V regions on human Ig constant parts; also called AB134_44) VH: QSVEESGGRLVTPGTPLTLTCTASGFDLSSYYMSWVRQAPGKGLEWIGIIYTDSSASYASWAKGRFTISRTSTTVDLKMTSPTTEDTATYFCARGLVVSTDNYNLWGPGTLVTVSS VL: AAVLTQTPSPVSVAVGGTVTINCQASQSIYNNNYLAWFQQKPGQPPKLLIYYTSTLASGVPSRFKGSGSGTQFTLTINGVQSDDAATYYCLGDVGGGMRVFGGGTEVVVK	1.75	0.014	482	2.13
P018.S.12.A.D02 (antibody, V domains shown, V regions on human Ig constant parts; also called AB134_67) VH: QSVEESGGRLVTPGTPLTLTCTVSGFSLRHYAMSWVRQAPGKGLEWIGVITTTANTYYASWAKGRFTVSKASSTTVDLKIMSPTIEDTATYFCARAMGLYDSYVDVDDTHDAFDPWGPGTLVTVSS VL: AQVLTQTASPVSAAVGGTVTINCQSSQSVYNSHVLSWYQQKPGQPPKLLIYDASNLASGVPSRFSASGSGTQFTLTISGVQSDDAATYYCLGGYDDDADNIFAFGGGTEVVVA	1.77	0.333	472	2.64
P018.S.11.A.H02 (antibody, V domains shown, V regions on human Ig constant parts; also called AB134_46) VH: QSVEESGGRLVTPGTPLTLTCTVSGFSLSNYAMSWVRQAPGKGLEWIGIISPSGNTYYANWAKGRFTISKTSTTVDLKITSPTTEDTATYFCAREGALYDDYGDYVDAFDPWGPGTLVTVSS VL: AAVLTQTPSPVSAAVGGTVSISCQSSESVYNNNWLSWYQQKPGQPPKLLIYRASTLASGVPSRFKGSGSGTQFTLTISDVQSDDAATYYCAGGYSSSSDINAFGGGTEVVVK	1.8	0.783	515	2.8
P018.S.11.A.E06 (antibody, V domains shown, V regions on human Ig constant parts; also called AB134_37) VH: QSVEESGGRLVTPGTPLTLTCTASGFSLSSYYMSWVRQAPGKGLEWIGIIDTGSGDTWYATWAKGRFTISKTSTTVDLKMTSLTTEDTATYFCARVNPEFAHVWPYYFDLWGQGTLVTVSS VL: ALVMTQTPASVEVAVGGTVTIKCQASQSISSNFLSWYQQNPGQPPKLLIDRASTLESGVPSRFKGSGSGTEFTLTISDLESADAATYYCQQGDSLSNVENAFGGGTELVVK	1.72	0.278	554	2.05
P018.S.12.A.G02 (antibody, V domains shown, V regions on human Ig constant parts; also called AB134_84) VH: QSLEESGGRLVTPGTPLTLTCTASGFSLNMFYMIWVRQAPGKGLEWIGMIDSMGSAWYASWAKGRFTISKTSTAVALKITSPTTEDTATYFCARAINGDGAGDLWGQGTLVTVSS VL: DVVMTQTPASVSAAVGGTVTINCRASEKIDSFLAWYQQKPGQPPKLLIYGASELAPGVPSRFSGSGSGTDYTLTISALESADAATYYCQSTADGSDYVGTFGGGTEVVVK	1.81	0.212	530	2.33
P018.S.11.A.B05 (antibody, V domains shown, V regions on human Ig constant parts; also called AB134_26) VH: QSVEESGGRLVTPGTPLTLTCTVSGFSLSTYNVAWVRQAPGKGLQYIGIMAFDGNTYYASWATGRFTISRTSTTVNLKITSPTTEDTATYFCCKGDPSSDTGTTLWGQGTLVTVSS VL: AAVLTQTPSSASEPVGGTVTIKCQSSPSVYSNNWLAWFQQKPGQRPKLLIYAAAKLASGVPSRFRGSGSGTQFTLTISDVQSDDAATYYCAGGFNSDSDTTFGGGTEVVVK	1.83	1.36	456	1.65
P018.S.12.A.E06 (antibody, V domains shown, V regions on human Ig constant parts; also called AB134_77) VH: QSVEESGGRLVTPGTPLTLTCTVSGFSLSNYHMCWVRRAPGKGLEWIGSITTADETTHYANWAKGRFTISETSTTVDLRITSPTTEDTAIYFCGRTIRYDDYAVDLWGPGTLVTVSS VL: DLVMTQTPASMSEPVGGTVTIKCQASESVGGYLAWYQQKAGQRPKLLIYAAGNLASGVPSRFKGSGSGTEYTLTISDLESADAATYYCQCTYFDSSYVGFGGGTEVVVR	1.87	0.054	493	2.3
